Source: patent US20120100139A1 (APTEVO RESEARCH AND DEVELOPMENT, published 2012)

Target: T1, CD86 on cells (WIL2-S human B-lymphoblastoid cells; HuCD86-2A2 CHO cells expressing CD86) (human, UniProt P42081 24-329)
T1 construct: whole, on cells; also called cell surface CD86
T1 sequence (looked up): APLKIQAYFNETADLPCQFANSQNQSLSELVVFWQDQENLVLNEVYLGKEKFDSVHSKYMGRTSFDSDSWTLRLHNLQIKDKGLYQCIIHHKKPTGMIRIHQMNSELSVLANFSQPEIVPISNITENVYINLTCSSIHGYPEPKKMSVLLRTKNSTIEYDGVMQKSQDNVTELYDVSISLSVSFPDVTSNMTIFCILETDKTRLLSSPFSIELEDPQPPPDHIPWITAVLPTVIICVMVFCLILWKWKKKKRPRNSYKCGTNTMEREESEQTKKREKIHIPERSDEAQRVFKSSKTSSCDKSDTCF
Test: flow cytometry, HEK293 supernatants on HuCD86-2A2 cells
Experimental: Briefly, WIL2-S or HuCD86-2A2 cells were incubated with test molecules containing a CD86 antagonist at concentrations ranging from saturation to background levels. […] After the incubation, cells were washed and a fluorophore (R-phycoerythrin) tagged F(Ab′)₂ antibody specific for the Fc portion of the xceptor molecule, IL10R-Ig fusion protein, or anti-IL10 antibody. The tagged cells were then passed through a flow cytometer and data was analyzed by plotting median fluorescence intensity of each sample.
In another experiment, different versions of humanized FUN1 SMIPs were tested for CD86 binding. Supernatants of HEK293 cells transiently transfected with the six different versions of humanized FUN1 SMIPs were examined for CD86 binding using HuCD86-2A2 cells.

binding result: binds
B1: FUN1-22 humanized FUN1 SMIP (Fc fusion)
chain: QVQLVQSGAEVKKPGASVKVSCKASGYTFTDYNMNWVRQAPGQGLEWMGNIDPYYGGTSYNQKFKGRVTMTRDTSISTAYMELSRLRSDDTAVYYCARWDYRYDDGRAYYVMDFWGQGTTVTVSSGGGGSGGGGSGGGGSGGGGSDIQMTQSPSSLSASVGDRVTITCKSSQSVLYSSNQKNYLAWYQQKPGKVPKLLIYWASTRESGVPSRFSGSGSGTDFTLTISSLQPEDVATYYCHQYLYSWTFGQGTKLEIKRLEPKSSDKTHTCPPCPAPEAAGAPSVFLFPPKPKDTLMISRTPEVTCVVVDVSHEDPEVKFNWYVDGVEVHNAKTKPREEQYNSTYRVVSVLTVLHQDWLNGKAYACAVSNKALPAPIEKTISKAKGQPREPQVYTLPPSRDELTKNQVSLTCLVKGFYPSDIAVEWESNGQPENNYKTTPPVLDSDGSFFLYSKLTVDKSRWQQGNVFSCSVMHEALHNHYTQKSLSLSPG
notes: SMIP: scFv-hinge-Fc single chain
